Test results: patent US20240239881A1 (Innovent, published 2024)
Residue numbers refer to the chain shown, from its start.

Legend:
[1] = molecular target: T1, Human Ang1 (human, UniProt Q15389 20-498, limits assumed); assay: ForteBio BLI, antibody on AHQ sensor
T1 construct: also called hAng1
T1 sequence (looked up): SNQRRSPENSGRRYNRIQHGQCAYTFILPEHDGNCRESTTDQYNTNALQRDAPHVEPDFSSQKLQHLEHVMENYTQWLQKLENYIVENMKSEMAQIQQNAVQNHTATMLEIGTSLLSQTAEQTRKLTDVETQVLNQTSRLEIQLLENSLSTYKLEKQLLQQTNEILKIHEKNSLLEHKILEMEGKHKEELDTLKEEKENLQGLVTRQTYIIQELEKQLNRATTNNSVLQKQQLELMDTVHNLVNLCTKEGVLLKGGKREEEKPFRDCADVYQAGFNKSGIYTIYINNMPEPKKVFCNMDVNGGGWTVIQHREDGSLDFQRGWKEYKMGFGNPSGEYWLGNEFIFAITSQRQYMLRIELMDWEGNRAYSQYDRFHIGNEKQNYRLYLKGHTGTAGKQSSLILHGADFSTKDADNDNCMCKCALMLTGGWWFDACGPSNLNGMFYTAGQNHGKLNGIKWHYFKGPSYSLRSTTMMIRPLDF
Method: The equilibrium dissociation constants (KD) of the above exemplary antibodies of the present invention binding to human Ang2 (h Ang2), cynomolgus monkey Ang2 (cAng2), murine Ang2 (mAng2), and human Ang1 (hAng1) were determined using the biological optical interferometry (ForteBio) assay.
The ForteBio affinity assay was performed according to the existing method (Estep, P et al., High throughput solution-based measurement of antibody-antigen affinity and epitope binning. MAbs, 2013.5 (2): p. 270-8). Briefly, the sensor was equilibrated in the assay buffer off-line for 30 min, followed by on-line detection for 60 s to establish the baseline. Then the purified antibodies obtained as described above were loaded on-line onto an AHQ sensor (ForteBio) for ForteBio affinity assay. The sensors with loaded antibodies were exposed to 100 nM of hAng2, cAng2, mAng2, and hAng1 antigens for 5 min, and then were transferred into the assay buffer for dissociation for 5 min to determine the dissociation rate. Kinetic analysis was performed using a 1:1 binding model.

[2] = molecular target: T2, Rhesus ANG2 (rhesus, UniProt F6QXG0 19-496); assay: SPR, Biacore T200, mean of three experiments
T2 sequence: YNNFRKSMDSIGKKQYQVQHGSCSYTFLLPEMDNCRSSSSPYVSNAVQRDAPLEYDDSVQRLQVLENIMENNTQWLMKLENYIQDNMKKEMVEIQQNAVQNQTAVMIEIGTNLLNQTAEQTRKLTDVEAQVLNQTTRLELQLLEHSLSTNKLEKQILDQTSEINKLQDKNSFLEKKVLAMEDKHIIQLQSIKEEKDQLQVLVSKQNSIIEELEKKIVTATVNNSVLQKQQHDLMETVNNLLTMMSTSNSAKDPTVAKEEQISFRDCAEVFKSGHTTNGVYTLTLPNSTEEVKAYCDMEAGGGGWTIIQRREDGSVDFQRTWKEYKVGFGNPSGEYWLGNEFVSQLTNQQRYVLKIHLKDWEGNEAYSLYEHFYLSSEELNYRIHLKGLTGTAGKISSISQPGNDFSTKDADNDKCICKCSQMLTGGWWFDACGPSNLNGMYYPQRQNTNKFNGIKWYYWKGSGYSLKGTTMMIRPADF
Method: (§1) The antibody was diluted to 1 μg/mL and was captured onto channel 2 for 30 s, and channel 1 was the blank control channel. The gradient-diluted Human ANG2, Rhesus ANG2, Rabbit ANG2, Rat ANG2 and Mouse ANG2 were sequentially injected into channels 1 and 2 of the chip, from low to high concentrations (0-32 nM), at a flow rate of 30 μL/min, with one concentration per cycle, and with 180 s association time and 1200 s dissociation time at 25° C. Finally, the chip was regenerated using Glycine pH 1.5 at 30 μL/min for 30 s. The affinity assay was repeated three times.

[3] = molecular target: T3, Rabbit ANG2 (rabbit, UniProt G1T9B3 19-496); assay: SPR, Biacore T200, mean of three experiments
T3 sequence: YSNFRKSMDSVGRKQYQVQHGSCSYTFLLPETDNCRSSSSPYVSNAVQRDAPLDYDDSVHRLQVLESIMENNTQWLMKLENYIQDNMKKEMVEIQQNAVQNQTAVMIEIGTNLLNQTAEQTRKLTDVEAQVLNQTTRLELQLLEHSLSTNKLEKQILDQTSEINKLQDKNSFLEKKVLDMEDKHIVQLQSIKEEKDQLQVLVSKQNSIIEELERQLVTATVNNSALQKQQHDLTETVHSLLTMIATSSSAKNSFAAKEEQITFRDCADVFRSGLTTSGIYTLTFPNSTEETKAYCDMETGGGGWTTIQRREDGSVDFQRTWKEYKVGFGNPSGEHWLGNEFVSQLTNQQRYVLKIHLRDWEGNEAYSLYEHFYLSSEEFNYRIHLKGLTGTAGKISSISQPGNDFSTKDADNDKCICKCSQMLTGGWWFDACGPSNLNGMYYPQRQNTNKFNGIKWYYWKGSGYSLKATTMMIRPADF
Method: as §1

[4] = molecular target: T4, human Ang2 (human, UniProt O15123 19-496, limits assumed); assay: SPR, Biacore T200, mean of three experiments
T4 construct: also called hAng2; h Ang2
T4 sequence: T2 sequence with V279I, L284F, V291I, A410G, G468A
Method: as §1

binding result [1]: no binding (tested: 100 nM) | Kd [2]: 146 pM | Kd [3]: 480 pM | Kd [4]: 45.7 pM
B1: humanized antibody hz81H10.4 (antibody, human IgG1, kappa, V domains shown)
VH: EVQLVESGGGLVKPGGSLRLSCAASGFTFSNYWMNWVRQAPGKGLEWVAEIRLKSNNYATHYAESVKGRFTISRDVSKNTVYLQMNSLKTEDTAVYYCTDTAPFAYWGQGTLVTVSS
VL: DIQMTQSPSSLSASVGDRVTITCKASQDVGTDVAWYQQKPGKAPKLLIYWASTRHTGVPSRFSGSGSGTDFTLTISSLQPEDFATYYCQQYSSYPLTFGGGTKVEIKR
notes: also called IBI335
